From PMC4269169

Target: GST-FLAG-Pol12 of Candida glabrata (Candida glabrata)
Test: pull-down

## His6-SUMO-Stn1 of Candida glabrata (natural protein)
  stoichiometry N: 1
